Results taken from article PMC2702820, “Pyrin Modulates the Intracellular Distribution of PSTPIP1” (PLoS ONE, 2009).

What was measured:
[1] = target: PSTPIP1, endogenous, PAPA syndrome patient (human (endogenous in CD14+ cells)) (UniProt O43586); experiment: non-reducing SDS-PAGE with Western blot; lysates of CD14+ cells from controls and a PAPA patient, non-reducing conditions, probed with anti-PSTPIP1
[2] = target: the molecule itself; experiment: as above
[3] = target: the molecule itself; experiment: non-reducing SDS-PAGE; recombinant PSTPIP1 from E. coli run in the absence of added reducing agent, Coomassie stain

Molecule “PSTPIP1, endogenous, PAPA syndrome patient (from UniProt O43586 1-416) (natural protein)” has a stoichiometry N [1] of 2.

B1: PSTPIP1 (proline serine threonine phosphatase-interacting protein 1), endogenous, control individuals (natural protein, human (endogenous in CD14+ cells), UniProt O43586 1-416, looked up)
chain: MMPQLQFKDAFWCRDFTAHTGYEVLLQRLLDGRKMCKDMEELLRQRAQAEERYGKELVQIARKAGGQTEINSLRASFDSLKQQMENVGSSHIQLALTLREELRSLEEFRERQKEQRKKYEAVMDRVQKSKLSLYKKAMESKKTYEQKCRDADDAEQAFERISANGHQKQVEKSQNKARQCKDSATEAERVYRQSIAQLEKVRAEWEQEHRTTCEAFQLQEFDRLTILRNALWVHSNQLSMQCVKDDELYEEVRLTLEGCSIDADIDSFIQAKSTGTEPPAPVPYQNYYDREVTPLTSSPGIQPSCGMIKRFSGLLHGSPKTTSLAASAASTETLTPTPERNEGVYTAIAVQEIQGNPASPAQEYRALYDYTAQNPDELDLSAGDILEVILEGEDGWWTVERNGQRGFVPGSYLEKL
notes: PSTPIP1, human, endogenous in CD14+ cells of control individuals (C1, C2); Major species runs at 95-96 kDa (dimer) on a non-reducing gel; minor monomer at 48 kDa and faint multimers; also called CD2BP1; source: endogenous, lysates of human CD14+ cells enriched from PBMC of control individuals
B1 was tested, and the “stoichiometry N” value [2] was 2.

B2: Recombinant human PSTPIP1 protein expressed in E. coli (natural protein, UniProt O43586 1-416, looked up)
chain: MMPQLQFKDAFWCRDFTAHTGYEVLLQRLLDGRKMCKDMEELLRQRAQAEERYGKELVQIARKAGGQTEINSLRASFDSLKQQMENVGSSHIQLALTLREELRSLEEFRERQKEQRKKYEAVMDRVQKSKLSLYKKAMESKKTYEQKCRDADDAEQAFERISANGHQKQVEKSQNKARQCKDSATEAERVYRQSIAQLEKVRAEWEQEHRTTCEAFQLQEFDRLTILRNALWVHSNQLSMQCVKDDELYEEVRLTLEGCSIDADIDSFIQAKSTGTEPPAPVPYQNYYDREVTPLTSSPGIQPSCGMIKRFSGLLHGSPKTTSLAASAASTETLTPTPERNEGVYTAIAVQEIQGNPASPAQEYRALYDYTAQNPDELDLSAGDILEVILEGEDGWWTVERNGQRGFVPGSYLEKL
notes: PSTPIP1, human, recombinant; monomer runs at 48 kDa; the purification is not described, only that several steps of the recovery need DTT; also called recombinant PSTPIP1; source: E. coli (pHIS8 plasmid), recovered recombinant protein
For B2, the “stoichiometry N” value [3] was 2.
